T1: Human LRRC15 Protein, His Tag (Acro Biosystems) (human, UniProt Q8TF66 22-538, limits assumed)
T1 construct: Bought protein with His tag
T1 sequence (looked up): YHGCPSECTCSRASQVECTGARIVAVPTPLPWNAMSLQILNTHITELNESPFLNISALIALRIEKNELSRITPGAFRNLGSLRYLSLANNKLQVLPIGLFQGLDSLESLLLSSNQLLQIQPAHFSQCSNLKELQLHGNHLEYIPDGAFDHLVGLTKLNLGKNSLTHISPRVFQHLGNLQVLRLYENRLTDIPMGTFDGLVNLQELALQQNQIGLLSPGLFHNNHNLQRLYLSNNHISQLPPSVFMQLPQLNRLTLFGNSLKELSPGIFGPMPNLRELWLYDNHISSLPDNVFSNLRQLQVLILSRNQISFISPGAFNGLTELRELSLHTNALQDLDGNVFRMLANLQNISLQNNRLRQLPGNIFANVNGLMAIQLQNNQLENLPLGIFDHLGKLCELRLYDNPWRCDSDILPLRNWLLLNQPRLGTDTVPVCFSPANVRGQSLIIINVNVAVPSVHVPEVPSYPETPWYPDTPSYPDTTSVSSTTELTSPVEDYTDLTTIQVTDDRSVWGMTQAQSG

T2: Human LRRC15 Protein, His Tag (Acro Biosystems) (human, UniProt Q8TF66 22-538, limits assumed)
T2 construct: not shown: His tag
T2 sequence (looked up): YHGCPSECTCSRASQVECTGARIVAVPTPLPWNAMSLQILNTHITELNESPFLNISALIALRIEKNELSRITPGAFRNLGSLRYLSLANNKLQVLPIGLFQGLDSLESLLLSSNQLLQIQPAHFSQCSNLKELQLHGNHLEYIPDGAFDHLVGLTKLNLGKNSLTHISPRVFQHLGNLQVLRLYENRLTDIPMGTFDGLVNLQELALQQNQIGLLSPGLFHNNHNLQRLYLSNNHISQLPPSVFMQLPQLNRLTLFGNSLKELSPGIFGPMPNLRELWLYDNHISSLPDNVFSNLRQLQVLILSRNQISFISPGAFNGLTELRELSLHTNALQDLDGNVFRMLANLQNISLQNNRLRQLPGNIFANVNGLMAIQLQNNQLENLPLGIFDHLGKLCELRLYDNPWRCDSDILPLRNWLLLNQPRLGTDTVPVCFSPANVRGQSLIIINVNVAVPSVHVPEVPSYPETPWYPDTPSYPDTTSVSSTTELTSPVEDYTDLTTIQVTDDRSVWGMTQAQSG


molecular target: T1, Human LRRC15 Protein, His Tag (Acro …); assay: BLI; dissociation pH 7.4 black, pH 5.4 grey [D00008 FIG. 1F]
Excerpt: For each individual plot, antigen binding proteins were captured on anti-human Fc biosensors and associated with LRRC15 at pH 7.4. Dissociation was at pH 7.4 (black) or pH 5.4 (grey). Major X-axis ticks=100 seconds, with left dashed vertical line=0 seconds. Major Y-axis ticks=0.5 nm and octet plots are shown MYT5712 and MYT6080-MYT6121.
Multiple LRRC15-binding monoclonal antibodies have been described in the literature and can be used as a template for engineering pH-dependent binding. We selected discovery RabMAb clone 15G7 (rabbit VH SEQ ID NO: 378, rabbit VL SEQ ID NO: 451; humanized VH SEQ ID NO: 382, humanized VL SEQ ID NO: 455) as a LRRC15-binding monoclonal antibody for pH-engineering via histidine scanning. […] To generate pH-dependent sequence variants, individual amino acid residues within the heavy chain CDRs were systematically substituted with a histidine (or alanine if H was already present in a given position; e.g., MYT6099), one at a time (rabbit, MYT6080-6121). Desirable mutations were transferred to a humanized framework (humanized, MYT 8387-8411). After allowing for four days of protein expression, cell culture supernatants were collected, quantified by SDS-PAGE analysis, and the pH dependence of the variant was evaluated using biolayer interferometry (BLI) on an Octet RED 96e instrument. Briefly, cell culture supernatants were diluted based on qualitative expression level of the variant determined by visual examination of SDS-PAGE gels, 5 μL of cell culture supernatant was diluted into 195 μL of 1×PBST, pH 7.4 for high expressors, 25 μL of cell culture supernatant was diluted into 175 μL of 1×PBST, pH 7.4 for medium expressors and 100 μL of cell culture supernatant was diluted into 100 μL of 1×PBST, pH 7.4 for low expressors for loading onto the sensor tips.

| binding result | Binder |
| --- | --- |
| binds | MYT6122 (antibody, V domains shown, rabbit 15G7 VL Q24H; chimeric, human constant regions) VH: QEQLEESGGDLVKPGASLTLTCTASGLDFRRTNYICWVRQAPGKGLEWIGCIYIADVVHYYASWAKGRFTFSKTSSTTVTLQMTSLTAADTATYFCARGADGGFVYGMDLWGPGTLVTVSS VL: DVVMTQTPASVSEPVGGTVTIKCHASQSIGNYLSWYQQKPGQRPKRLIYSASTLPSGVPSRFKGAGSGTEFTLTISDLESADAATYYCQNNYWLAGYGHPFGGGTEVVVK |

molecular target: T2, Human LRRC15 Protein, His Tag (Acro …); assay: BLI; dissociation pH 7.4 black, pH 5.4 grey [D00016 FIG. 3B]

| binding result | Binder |
| --- | --- |
| binds | MYT7943 (antibody, V domains shown, tested as culture supernatant; also called 24D9 VL L56H) VH: QQQLVESGGGLVKPGASLTLTCKASGFSFSGSYWICWVRQAPGKGLEWIGCINGGSLDITYYASWAKGRFTISKASSTTVTLQKTSLTAADTATYFCASDTSYTAYGNFYFNLWGPGTLVTVSS VL: AQVLTQTASPVSAAVGGTVTINCQSSQSVLNNNWLAWYQQKPGQPPKLLIYDASSHASGVPSRFKGSGSGTQFTLTISDLESDDAATYYCQGEFSCGSADCNAFGGGTEVVVKG |
| binds | MYT7954 (antibody, V domains shown, also called 24D9 VL A99H) VH: QQQLVESGGGLVKPGASLTLTCKASGFSFSGSYWICWVRQAPGKGLEWIGCINGGSLDITYYASWAKGRFTISKASSTTVTLQKTSLTAADTATYFCASDTSYTAYGNFYFNLWGPGTLVTVSS VL: AQVLTQTASPVSAAVGGTVTINCQSSQSVLNNNWLAWYQQKPGQPPKLLIYDASSLASGVPSRFKGSGSGTQFTLTISDLESDDAATYYCQGEFSCGSHDCNAFGGGTEVVVKG |
| binds | MYT7952 (antibody, V domains shown, tested as culture supernatant; also called 24D9 VL G97H) VH: QQQLVESGGGLVKPGASLTLTCKASGFSFSGSYWICWVRQAPGKGLEWIGCINGGSLDITYYASWAKGRFTISKASSTTVTLQKTSLTAADTATYFCASDTSYTAYGNFYFNLWGPGTLVTVSS VL: AQVLTQTASPVSAAVGGTVTINCQSSQSVLNNNWLAWYQQKPGQPPKLLIYDASSLASGVPSRFKGSGSGTQFTLTISDLESDDAATYYCQGEFSCHSADCNAFGGGTEVVVKG |
| no binding (tested: 50 nM LRRC15) | MYT7947 (antibody, V domains shown, tested as culture supernatant; also called 24D9 VL G92H) VH: QQQLVESGGGLVKPGASLTLTCKASGFSFSGSYWICWVRQAPGKGLEWIGCINGGSLDITYYASWAKGRFTISKASSTTVTLQKTSLTAADTATYFCASDTSYTAYGNFYFNLWGPGTLVTVSS VL: AQVLTQTASPVSAAVGGTVTINCQSSQSVLNNNWLAWYQQKPGQPPKLLIYDASSLASGVPSRFKGSGSGTQFTLTISDLESDDAATYYCQHEFSCGSADCNAFGGGTEVVVKG |
| binds | MYT7944 (antibody, V domains shown, tested as culture supernatant; also called 24D9 VL A57H) VH: QQQLVESGGGLVKPGASLTLTCKASGFSFSGSYWICWVRQAPGKGLEWIGCINGGSLDITYYASWAKGRFTISKASSTTVTLQKTSLTAADTATYFCASDTSYTAYGNFYFNLWGPGTLVTVSS VL: AQVLTQTASPVSAAVGGTVTINCQSSQSVLNNNWLAWYQQKPGQPPKLLIYDASSLHSGVPSRFKGSGSGTQFTLTISDLESDDAATYYCQGEFSCGSADCNAFGGGTEVVVKG |
| binds | MYT7949 (antibody, V domains shown, tested as culture supernatant; also called 24D9 VL F94H) VH: QQQLVESGGGLVKPGASLTLTCKASGFSFSGSYWICWVRQAPGKGLEWIGCINGGSLDITYYASWAKGRFTISKASSTTVTLQKTSLTAADTATYFCASDTSYTAYGNFYFNLWGPGTLVTVSS VL: AQVLTQTASPVSAAVGGTVTINCQSSQSVLNNNWLAWYQQKPGQPPKLLIYDASSLASGVPSRFKGSGSGTQFTLTISDLESDDAATYYCQGEHSCGSADCNAFGGGTEVVVKG |
| binds | MYT7946 (antibody, V domains shown, tested as culture supernatant; also called 24D9 VL Q91H) VH: QQQLVESGGGLVKPGASLTLTCKASGFSFSGSYWICWVRQAPGKGLEWIGCINGGSLDITYYASWAKGRFTISKASSTTVTLQKTSLTAADTATYFCASDTSYTAYGNFYFNLWGPGTLVTVSS VL: AQVLTQTASPVSAAVGGTVTINCQSSQSVLNNNWLAWYQQKPGQPPKLLIYDASSLASGVPSRFKGSGSGTQFTLTISDLESDDAATYYCHGEFSCGSADCNAFGGGTEVVVKG |
| binds | MYT7953 (antibody, V domains shown, tested as culture supernatant; also called 24D9 VL S98H) VH: QQQLVESGGGLVKPGASLTLTCKASGFSFSGSYWICWVRQAPGKGLEWIGCINGGSLDITYYASWAKGRFTISKASSTTVTLQKTSLTAADTATYFCASDTSYTAYGNFYFNLWGPGTLVTVSS VL: AQVLTQTASPVSAAVGGTVTINCQSSQSVLNNNWLAWYQQKPGQPPKLLIYDASSLASGVPSRFKGSGSGTQFTLTISDLESDDAATYYCQGEFSCGHADCNAFGGGTEVVVKG |
| no binding (tested: 50 nM LRRC15) | MYT7955 (antibody, V domains shown, tested as culture supernatant; also called 24D9 VL D100H) VH: QQQLVESGGGLVKPGASLTLTCKASGFSFSGSYWICWVRQAPGKGLEWIGCINGGSLDITYYASWAKGRFTISKASSTTVTLQKTSLTAADTATYFCASDTSYTAYGNFYFNLWGPGTLVTVSS VL: AQVLTQTASPVSAAVGGTVTINCQSSQSVLNNNWLAWYQQKPGQPPKLLIYDASSLASGVPSRFKGSGSGTQFTLTISDLESDDAATYYCQGEFSCGSAHCNAFGGGTEVVVKG |
| no binding (tested: 50 nM LRRC15) | MYT7948 (antibody, V domains shown, tested as culture supernatant; also called 24D9 VL E93H) VH: QQQLVESGGGLVKPGASLTLTCKASGFSFSGSYWICWVRQAPGKGLEWIGCINGGSLDITYYASWAKGRFTISKASSTTVTLQKTSLTAADTATYFCASDTSYTAYGNFYFNLWGPGTLVTVSS VL: AQVLTQTASPVSAAVGGTVTINCQSSQSVLNNNWLAWYQQKPGQPPKLLIYDASSLASGVPSRFKGSGSGTQFTLTISDLESDDAATYYCQGHFSCGSADCNAFGGGTEVVVKG |
| no binding (tested: 50 nM LRRC15) | MYT7958 (antibody, V domains shown, tested as culture supernatant; also called 24D9 VL A103H) VH: QQQLVESGGGLVKPGASLTLTCKASGFSFSGSYWICWVRQAPGKGLEWIGCINGGSLDITYYASWAKGRFTISKASSTTVTLQKTSLTAADTATYFCASDTSYTAYGNFYFNLWGPGTLVTVSS VL: AQVLTQTASPVSAAVGGTVTINCQSSQSVLNNNWLAWYQQKPGQPPKLLIYDASSLASGVPSRFKGSGSGTQFTLTISDLESDDAATYYCQGEFSCGSADCNHFGGGTEVVVKG |
| no binding (tested: 50 nM LRRC15) | MYT7950 (antibody, V domains shown, tested as culture supernatant; also called 24D9 VL S95H) VH: QQQLVESGGGLVKPGASLTLTCKASGFSFSGSYWICWVRQAPGKGLEWIGCINGGSLDITYYASWAKGRFTISKASSTTVTLQKTSLTAADTATYFCASDTSYTAYGNFYFNLWGPGTLVTVSS VL: AQVLTQTASPVSAAVGGTVTINCQSSQSVLNNNWLAWYQQKPGQPPKLLIYDASSLASGVPSRFKGSGSGTQFTLTISDLESDDAATYYCQGEFHCGSADCNAFGGGTEVVVKG |
| no binding (tested: 50 nM LRRC15) | MYT7951 (antibody, V domains shown, tested as culture supernatant; also called 24D9 VL C96H) VH: QQQLVESGGGLVKPGASLTLTCKASGFSFSGSYWICWVRQAPGKGLEWIGCINGGSLDITYYASWAKGRFTISKASSTTVTLQKTSLTAADTATYFCASDTSYTAYGNFYFNLWGPGTLVTVSS VL: AQVLTQTASPVSAAVGGTVTINCQSSQSVLNNNWLAWYQQKPGQPPKLLIYDASSLASGVPSRFKGSGSGTQFTLTISDLESDDAATYYCQGEFSHGSADCNAFGGGTEVVVKG |
| no binding (tested: 50 nM LRRC15) | MYT7957 (antibody, V domains shown, tested as culture supernatant; also called 24D9 VL N102H) VH: QQQLVESGGGLVKPGASLTLTCKASGFSFSGSYWICWVRQAPGKGLEWIGCINGGSLDITYYASWAKGRFTISKASSTTVTLQKTSLTAADTATYFCASDTSYTAYGNFYFNLWGPGTLVTVSS VL: AQVLTQTASPVSAAVGGTVTINCQSSQSVLNNNWLAWYQQKPGQPPKLLIYDASSLASGVPSRFKGSGSGTQFTLTISDLESDDAATYYCQGEFSCGSADCHAFGGGTEVVVKG |
| binds | MYT7945 (antibody, V domains shown, tested as culture supernatant; also called 24D9 VL S58H) VH: QQQLVESGGGLVKPGASLTLTCKASGFSFSGSYWICWVRQAPGKGLEWIGCINGGSLDITYYASWAKGRFTISKASSTTVTLQKTSLTAADTATYFCASDTSYTAYGNFYFNLWGPGTLVTVSS VL: AQVLTQTASPVSAAVGGTVTINCQSSQSVLNNNWLAWYQQKPGQPPKLLIYDASSLAHGVPSRFKGSGSGTQFTLTISDLESDDAATYYCQGEFSCGSADCNAFGGGTEVVVKG |

Reference: patent US20250352661A1 (MYTHIC THERAPEUTICS, published 2025)
